From article PMC4323627 (Journal of molecular biology, 2014)
Each block holds one binder with its values, some of them ahead of it.

What was measured:
crystal structure = biological target: the molecule itself; assay: crystal structure
[1] = biological target: T1, human Shq1 CS domain without 6XHis-tag (hCS) (human, UniProt Q6PI26 1-96, uniformly 15N-labelled); assay: NMR titration
T1 sequence (looked up): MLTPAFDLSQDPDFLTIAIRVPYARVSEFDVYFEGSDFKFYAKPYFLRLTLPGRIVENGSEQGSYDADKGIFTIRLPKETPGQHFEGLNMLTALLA

B1: human Shq1 CS domain P22S with N-terminal 6XHis-tag (his-hCS(P22S)) (domain or fragment)
chain: MAHHHHHHVDDDDKMLTPAFDLSQDPDFLTIAIRVSYARVSEFDVYFEGSDFKFYAKPYFLRLTLPGRIVENGSEQGSYDADKGIFTIRLPKETPGQHFEGLNMLTALLA
- binding result (crystal structure): binds

- Kd [1]: > 500 µM
B2: Dys2S peptide (dyskerin residues 62-73) (peptide)
peptide: LNVRTTHYTPLA
